We go through two molecules from patent US20230051715A1 (MABWELL THERAPEUTICS, published 2023).

In test [1] the target is T1, human C1s mutant M9 (K336G, D343Y & E351A) (human, UniProt P09871 16-688).
T1 construct: The entry is the mutant itself
T1 sequence: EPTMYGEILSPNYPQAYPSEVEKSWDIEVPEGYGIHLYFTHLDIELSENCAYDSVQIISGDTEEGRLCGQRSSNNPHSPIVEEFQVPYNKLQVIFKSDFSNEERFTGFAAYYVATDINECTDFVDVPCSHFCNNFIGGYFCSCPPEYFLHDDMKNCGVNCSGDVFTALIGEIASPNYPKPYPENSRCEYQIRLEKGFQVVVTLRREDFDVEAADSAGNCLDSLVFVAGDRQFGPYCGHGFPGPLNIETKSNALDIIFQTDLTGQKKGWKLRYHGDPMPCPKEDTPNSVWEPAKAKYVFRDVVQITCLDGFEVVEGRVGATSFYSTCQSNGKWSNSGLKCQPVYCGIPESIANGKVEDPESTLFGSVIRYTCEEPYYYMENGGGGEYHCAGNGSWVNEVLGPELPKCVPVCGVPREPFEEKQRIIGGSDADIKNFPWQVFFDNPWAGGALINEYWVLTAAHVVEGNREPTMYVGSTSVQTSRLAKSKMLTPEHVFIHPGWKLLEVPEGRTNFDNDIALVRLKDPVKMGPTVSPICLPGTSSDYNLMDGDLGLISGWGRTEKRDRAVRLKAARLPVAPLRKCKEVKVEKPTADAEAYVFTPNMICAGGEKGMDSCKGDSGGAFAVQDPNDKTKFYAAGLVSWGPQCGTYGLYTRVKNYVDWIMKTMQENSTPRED
The test is described as follows: ELISA, plate coated with human C1s mutant M9: K336G, D343Y, E351A, OD450nm; the curve reaches only OD450 about 0.7 at 1000 ng/ml. On the procedure:
ELISA was carried out by first coating 96-well plates with 200 ng/well of full-length or truncated C1s proteins overnight. The next morning, plates were blocked with SuperBlock T20 blocking buffer (Thermo Scientific 37536) for 1 h with gentle shaking. Then, various concentrations of anti-C1s antibodies diluted in SuperBlock T20 blocking buffer were added to the plates and incubated for 1 h with gentle shaking. Mouse IgG (Sigma-Aldrich 15381) and human IgG1 (BioXCell BP0297) were used as negative controls. The plates were washed before incubating with HRP conjugated secondary antibodies diluted in SuperBlock T20 blocking buffer (goat anti-mouse IgG (H+L) cross-adsorbed secondary antibody HRP (Invitrogen G-21040) or goat anti-human IgG antibody, HRP conjugate (Millipore AP309P)) for 1 h with gentle shaking. At last, the plates were washed and color developed with ELISA liquid HRP substrate (Sigma-Aldrich), followed by stopping the reaction with addition of 1M H₂SO₄ in the same volume as the ELISA liquid substrate. Bound antibody was measured by absorbance at OD₄₅₀ₙₘ.
Binding of anti-C1s antibodies to mutants M1-M20 of human C1s was measured by ELISA as described in Example 4, and results are shown in FIGS. 6B-6U. […]
On the technique in general: An ELISA detects its analyte on a solid surface through an enzyme-linked reagent.

The target of test [2] is T2, cynomolgus monkey C1s (produced in house) (cynomolgus monkey, UniProt P09871 16-685 (human entry), limits assumed).
T2 construct: also called CyC1s
T2 chain: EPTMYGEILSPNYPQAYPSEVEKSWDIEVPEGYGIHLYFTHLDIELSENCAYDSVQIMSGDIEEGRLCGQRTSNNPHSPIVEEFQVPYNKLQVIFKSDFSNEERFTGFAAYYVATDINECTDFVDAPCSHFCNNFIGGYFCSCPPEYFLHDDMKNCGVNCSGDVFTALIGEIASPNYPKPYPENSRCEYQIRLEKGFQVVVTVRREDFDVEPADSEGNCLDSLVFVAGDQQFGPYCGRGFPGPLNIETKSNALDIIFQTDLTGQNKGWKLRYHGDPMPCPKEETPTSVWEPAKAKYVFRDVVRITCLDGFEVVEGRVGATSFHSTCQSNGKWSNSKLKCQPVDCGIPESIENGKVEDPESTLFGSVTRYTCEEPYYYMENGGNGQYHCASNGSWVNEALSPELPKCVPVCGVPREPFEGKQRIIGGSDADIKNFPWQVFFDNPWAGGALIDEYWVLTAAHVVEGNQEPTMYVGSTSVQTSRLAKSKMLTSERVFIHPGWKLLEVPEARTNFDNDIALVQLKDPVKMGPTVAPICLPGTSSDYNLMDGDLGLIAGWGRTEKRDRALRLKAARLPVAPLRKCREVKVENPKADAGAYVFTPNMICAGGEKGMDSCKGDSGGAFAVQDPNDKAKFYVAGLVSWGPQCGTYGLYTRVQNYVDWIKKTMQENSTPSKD
Briefly: BLI (Octet RED96e), antibody on AHC biosensor; C1s Species: Cyno Monkey; R^2 0.9993. The text has this: At last, analyte was dissociated in 1×KB for 360 sec. Data analysis was done using OCTET® Data Analysis HT Software (Sartorius AG).

B1: Anti-C1s antibody hz2-7(H1L2) (antibody, V domains shown)
VH: EVQLLESGGGLVQPGGSLRLSCAASGFTFSNYFMNWVRQAPGKGLEWVSEIRLKFTNYATHYADSVKGRFTISRDDSKSTLYLQMNSLRAEDTAVYYCTRDYGSRNGYFDYWGQGTLVTVSS
VL: DIVMTQTPLSLPVTPGEPASISCRSSKSLLHSNGNTFLYWFLQKPGQSPQLLIYRMSNLASGVPDRFSGSGSGTDFTLKISRVEAEDVGVYYCMQHLEYPYTFGGGTKLEIKR
notes: Humanized, human IgG1 / kappa; also called hz2-7(1L2)
One may read the EC50 as the concentration needed to bring the measured effect to its halfway point. Molecule B1 yielded an EC50 in test [1] of 0.013 µg/mL.

B2: Anti-C1s antibody hz2-8 (H1L2 G80A/T82A) (antibody, V domains shown)
VH: QVQLVQSGAEVKKPGASVKVSCKASGFNIKEYYMHWVRQAPEQGLEWMGWIDPENADAIYAQKFQGRVTITADTSTNTAYMELSSLRSEDTAVYYCARSRLFFAYWGQGTLVTVSS
VL: DIQMTQSPKSLSASVGDRVTITCRASQDVRTALDWYQQKPGQSPKLLIYSASYRYSGVPSRFSGSGSGTDFTLTISSLQPEDFATYYCQQQYTTPYTFGQGTKLEIKR
notes: Humanized variant with G80A and T82A in HC CDR2 (already in the entry), human IgG1 / kappa
Broadly, the Kd is the equilibrium constant for the complex coming apart. The term koff denotes the first-order rate constant of dissociation. In general, kon refers to the second-order rate constant of association. In test [2], B2 registered a Kd of 3.5 nM, a dissociation rate constant (koff) of 0.00081 s⁻¹ and a kon of 230000 M⁻¹ s⁻¹.
